Laboratory results reported in paper PMC2172336.

Target: Kss1-7m3-GBD (Kss1-7m3 fused to the Gal4 DNA-binding domain) (S. cerevisiae) (UniProt P14681)
Assay: two-hybrid

Kss1-7m3-GBD (Kss1-7m3 fused to the Gal4 DNA-binding domain) (S. cerevisiae), sequence (P14681 whole entry, the tested form may be a part): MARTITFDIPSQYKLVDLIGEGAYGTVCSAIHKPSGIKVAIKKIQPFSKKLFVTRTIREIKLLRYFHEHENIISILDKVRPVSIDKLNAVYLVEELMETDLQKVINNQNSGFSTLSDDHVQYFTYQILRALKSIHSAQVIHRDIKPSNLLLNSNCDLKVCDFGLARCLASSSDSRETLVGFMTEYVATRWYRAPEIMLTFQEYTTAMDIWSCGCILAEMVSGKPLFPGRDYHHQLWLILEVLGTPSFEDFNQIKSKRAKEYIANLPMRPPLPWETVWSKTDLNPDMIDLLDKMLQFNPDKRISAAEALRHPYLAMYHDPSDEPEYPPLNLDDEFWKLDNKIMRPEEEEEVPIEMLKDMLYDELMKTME

fold above background (two-hybrid reporter): 6 fold
B1: Ste12-GAD (Ste12 fused to the Gal4 transcriptional activation domain) (natural protein)
chain: MKVQITNSRTEEILKVQANNENDEVSKATPGEVEESLRLIGDLKFFLATAPVNWQENQIIRRYYLNSGQGFVSCVFWNNLYYITGTDIVKCCLYRMQKFGREVVQKKKFEEGIFSDLRNLKCGIDATLEQPKSEFLSFLFRNMCLKTQKKQKVFFWFSVAHDKLFADALERDLKRESLNQPSTTKPVNEPALSFSYDSSSDKPLYDQLLQHLDSRRPSSTTKSDNSPPKLESENFKDNELVTVTNQPLLGVGLMDDDAPESPSQINDFIPQKLIIEPNTLELNGLTEETPHDLPKNTAKGRDEEDFPLDYFPVSVEYPTEENAFDPFPPQAFTPAAPSMPISYDNVNERDSMPVNSLLNRYPYQLSVAPTFPVPPSSSRQHFMTNRDFYSSNNNKEKLVSPSDPTSYMKYDEPVMDFDESRPNENCTNAKSHNSGQQTKQHQLYSNNFQQSYPNGMVPGYYPKMPYNPMGGDPLLDQAFYGADDFFFPPEGCDNNMLYPQTATSWNVLPPQAMQPAPTYVGRPYTPNYRSTPGSAMFPYMQSSNSMQWNTAVSPYSSRAPSTTAKNYPPSTFYSQNINQYPRRRTVGMKSSQGNVPTGNKQSVGKSAKISKPLHIKTSAYQKQYKINLETKARPSAGDEDSAHPDKNKEISMPTPDSNTLVVQSEEGGAHSLEVDTNRRSDKNLPDAT
